B1: type II TARP γ5 (C-terminally truncated mouse subunit, Cacng5, residues Ser2-Glu207) (domain or fragment)
chain: SACGRKALTLLSSVFAVCGLGLLGIAVSTDYWLYLEEGIILPQNQSTEVKMSLHSGLWRVCFLAGEERGRCFTIEYVMPMNSQMTSESTVNVLKMIRSATPFPLVSLFFMFIGFILSNIGHIRPHRTILAFVSGIFFILSGLSLVVGLVLYISSINDEMLNRTKDAETYFNYKYGWSFAFAAISFLLTESAGVMSVYLFMKRYTAE

Columns and labels:
[1] = molecular target: GluA2 (modified calcium-permeable rat GluA2flip subunit with Q586 at the Q/R-site, GluA2*) (rat); experiment: cryo-EM structure
[2] = molecular target: GluA2 (modified calcium-permeable rat GluA2flip subunit with Q586 at the Q/R-site, GluA2*) (rat); experiment: cryo-EM structure; remark: listed apart in the source

Molecule | stoichiometry N [1] | stoichiometry N (γ5 per GluA2 tetramer) [2]
GluA2 (modified calcium-permeable rat GluA2flip subunit with Q586 at the Q/R-site, GluA2*) (receptor) | 4 | 
B1 |  | 2

Reference: paper PMC8642297
